In patent publication US20230265151A1, “GIP/GLP1 CO-AGONIST COMPOUNDS” (priority 2020, published 2023):
Residue numbers refer to the chain shown, from its start.

B1: Example 19 (peptide)
peptide: YXEGTXTSDXSIXLDXKAQXEFIXXLIEGGPSSGAPPPSK
modifications: Aib2, αMeF(2F)6, 4Pal10, αMeL13, Orn16, Aib20, D-Glu24, αMeY25, K17 and K40: K(AEEA2-(γ-Glu)-CO-(CH2)12-CO2H), C-terminal NH2
B2: Example 25 (peptide)
peptide: B1 peptide
modifications: Aib2, αMeF(2F)6, 4Pal10, αMeL13, Orn16, Aib20, D-Glu24, αMeY25, K17 and K40: K(AEEA2-(γ-Glu)-CO-(CH2)14-CH3), C-terminal NH2
B3: Example 20 (peptide)
peptide: YXEGTXTSDXSIXLDXIAQXEFIXXLIKGGKSSGAPPPS
modifications: Aib2, αMeF(2F)6, 4Pal10, αMeL13, Orn16, Aib20, D-Glu24, αMeY25, K28 and K31: K(AEEA2-(γ-Glu)-CO-(CH2)12-CO2H), C-terminal NH2
B4: Example 24 (peptide)
peptide: B3 peptide with I17K, K28E, G30K, K31P
modifications: Aib2, αMeF(2F)6, 4Pal10, αMeL13, Orn16, Aib20, D-Glu24, αMeY25, K17 and K30: K(AEEA2-(γ-Glu)-CO-(CH2)14-CH3), C-terminal NH2
B5: Example 6 (peptide)
peptide: B3 peptide with I17K, K28E
modifications: Aib2, αMeF(2F)6, 4Pal10, αMeL13, Orn16, Aib20, D-Glu24, αMeY25, K17 and K31: K(AEEA2-(γ-Glu)-CO-(CH2)10-CO2H), C-terminal NH2
B6: Example 1 (peptide)
peptide: B3 peptide with I17K, K28E
modifications: Aib2, αMeF(2F)6, 4Pal10, αMeL13, Orn16, Aib20, D-Glu24, αMeY25, K17 and K31: K(AEEA2-(γ-Glu)-CO-(CH2)12-CO2H), C-terminal NH2
B7: Example 142 (peptide)
peptide: B3 peptide with I17K, K28E
modifications: Aib2, αMeF(2F)6, Bzt10, αMeL13, Orn16, Aib20, D-Glu24, αMeY25, K17 and K31: K(AEEA2-(γ-Glu)-CO-(CH2)12-CO2H), C-terminal NH2
B8: Example 23 (peptide)
peptide: B3 peptide with I17K, K31P
modifications: Aib2, αMeF(2F)6, 4Pal10, αMeL13, Orn16, Aib20, D-Glu24, αMeY25, K17 and K28: K(AEEA2-(γ-Glu)-CO-(CH2)14-CH3), C-terminal NH2
B9: Example 31 (peptide)
peptide: B3 peptide with I17K, K28E
modifications: Aib2, αMeF(2F)6, 4Pal10, αMeL13, Orn16, Aib20, D-Glu24, αMeY25, K17 and K31: K(AEEA3-(γ-Glu)-CO-(CH2)14-CH3), C-terminal NH2
B10: Example 27 (peptide)
peptide: B3 peptide with X10K, I17K, K28E, K31P
modifications: Aib2, αMeF(2F)6, αMeL13, Orn16, Aib20, D-Glu24, αMeY25, K10 and K17: K(AEEA2-(γ-Glu)-CO-(CH2)12-CO2H), C-terminal NH2
B11: Example 22 (peptide)
peptide: B3 peptide with I17K, X24K, K28E, K31P
modifications: Aib2, αMeF(2F)6, 4Pal10, αMeL13, Orn16, Aib20, αMeY25, K17 and K24: K(AEEA2-(γ-Glu)-CO-(CH2)14-CH3), C-terminal NH2
B12: Example 26 (peptide)
peptide: B3 peptide
modifications: Aib2, αMeF(2F)6, 4Pal10, αMeL13, Orn16, Aib20, D-Glu24, αMeY25, K28 and K31: K(AEEA2-(γ-Glu)-CO-(CH2)14-CH3), C-terminal NH2

The binders below were run against T1, human GIP receptor (human, UniProt P48546 22-466) (assay: cell-based or functional assay).
T1 sequence (looked up): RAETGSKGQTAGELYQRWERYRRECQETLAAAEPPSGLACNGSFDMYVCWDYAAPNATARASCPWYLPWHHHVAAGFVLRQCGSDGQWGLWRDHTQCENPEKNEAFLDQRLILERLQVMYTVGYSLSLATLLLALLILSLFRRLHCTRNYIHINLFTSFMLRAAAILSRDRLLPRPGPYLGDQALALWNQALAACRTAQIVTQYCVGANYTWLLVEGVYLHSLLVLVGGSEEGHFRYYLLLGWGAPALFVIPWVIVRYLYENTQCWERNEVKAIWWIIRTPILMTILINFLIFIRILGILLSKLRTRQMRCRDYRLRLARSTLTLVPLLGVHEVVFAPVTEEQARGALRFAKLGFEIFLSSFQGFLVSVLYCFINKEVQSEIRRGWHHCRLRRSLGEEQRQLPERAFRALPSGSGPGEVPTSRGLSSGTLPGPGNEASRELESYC

| Binder | EC50, cAMP | Emax, cAMP |
| --- | --- | --- |
| B1 | 0.0158 nM | 96.6% |
| B2 | 0.00243 nM | – |
| B3 | 0.00985 nM | 98.8% |
| B4 | 0.00266 nM | – |
| B5 | 0.0477 nM | – |
| B6 | 0.0145 nM | 90.2% |
| B7 | 0.0317 nM | – |
| B8 | 0.00299 nM | – |
| B9 | 0.00157 nM | – |
| B10 | 0.116 nM | 88.8% |
| B11 | 0.00656 nM | – |
| B12 | 0.0218 nM | – |

What follows are binders tested against human GLP-1 receptor (human, UniProt P43220 24-463) (assay: cell-based or functional assay).

| Binder | EC50, cAMP |
| --- | --- |
| B1 | 1.34 nM |
| B2 | 0.00426 nM |
| B3 | 0.552 nM |
| B4 | 0.0063 nM |
| B5 | 2.3 nM |
| B6 | 0.925 nM |
| B8 | 0.00722 nM |
| B10 | 2.77 nM |
| B11 | 0.0153 nM |
| B12 | 0.0711 nM |

These binders were tested against human glucagon receptor (human, UniProt P47871 26-477) (assay: cell-based or functional assay).

| Binder | EC50, cAMP |
| --- | --- |
| B1 | > 9950 nM |
| B2 | > 9950 nM |
| B3 | > 9950 nM |
| B4 | > 9950 nM |
| B5 | > 9950 nM |
| B6 | > 9950 nM |
| B7 | > 9950 nM |
| B8 | > 9950 nM |
| B9 | > 9950 nM |
| B10 | > 9950 nM |
| B11 | > 9950 nM |
| B12 | > 9950 nM |
